Laboratory results: patent CN113461812A (BEIJING LUFEI BIOTECHNOLOGY CO LTD, dated 2021)

Experiments:
Test in all cases: SPR (Biacore), 1:1 binding fit
[1] = target: T1, RBD突变型(N501Y) (SARS-CoV-2, UniProt P0DTC2 319-541)
T1 construct: domain: RBD

[2] = target: T2, RBD突变型(K417T E484K N501Y) (SARS-CoV-2, UniProt P0DTC2 319-541)
T2 construct: domain: RBD

[3] = target: T3, RBD突变型(K417N E484K N501Y) (SARS-CoV-2, UniProt P0DTC2 319-541)
T3 construct: domain: RBD

B1: 人源化新冠病毒中和性抗体nCoV-00D (antibody, V domains shown)
VH: QVQLQQSGAELVKPGASVKLSCKTSGYTFTRYYIYWVKQRPGQGLEWIGEINPNNGGTNFNEKFKSKATLTVDKSSNTAYMQLSSLTSEDSAVYYCTIFITTVIARDYWGQGTLVTVSA
VL: DIVLTQSPASLAVSLGQRATISCRASESVEYSGTTLMQWFQQKPGQPPKLLIYAASNVESGVPARFSGSGSGTDFSLNIHPVEEDDVAMYFCHQSREVPWTFGGGTKLEIKR
notes: also called nCoV-00D抗体
Kd [1]: 0.246 pM
koff [1]: 9.51e-08 s⁻¹
kon [1]: 387000 M⁻¹ s⁻¹
Kd [2]: 0.53 pM
koff [2]: 1.98e-08 s⁻¹
kon [2]: 37400 M⁻¹ s⁻¹
Kd [3]: 7.91 pM
koff [3]: 2.35e-07 s⁻¹
kon [3]: 29700 M⁻¹ s⁻¹
